From US20210171621A1 (SUNSHINE GUOJIAN PHARMACEUTICAL SHANGHAI, published 2021)
Residue numbers refer to the chain shown, from its start. Each block holds one binder with its values, some of them ahead of it.

Tests used:
[1] = biological target: T1, guinea pig IL-5 with His-tag (guinea pig, UniProt O08987 20-135); test: ELISA, His-tagged IL-5 captured by anti-His antibody; guinea pig
T1 construct: Expressed transiently in HEK293E and captured from the supernatant by a murine anti-His antibody; not shown: His-tag
T1 sequence (looked up): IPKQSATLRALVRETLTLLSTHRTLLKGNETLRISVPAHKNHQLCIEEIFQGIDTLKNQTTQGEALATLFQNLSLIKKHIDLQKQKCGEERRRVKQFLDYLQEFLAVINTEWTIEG
Text: (§1) IL-5 genes of rat, mouse, guinea pig and rabbit were synthesized and constructed into the pTT5 transient vector, respectively (All the sequences of the above genes are from http://www.uniprot.org, the mouse number is P04401, the rat number is Q08125, the guinea pig number is O08987, and the rabbit number is G1SL79), and then transiently expressed in HEK293E.

[2] = biological target: T2, mouse IL-5 with His-tag (mouse, UniProt P04401 21-133); test: ELISA, His-tagged IL-5 captured by anti-His antibody; mouse
T2 construct: Expressed transiently in HEK293E and captured from the supernatant by a murine anti-His antibody; not shown: His-tag
T2 sequence (looked up): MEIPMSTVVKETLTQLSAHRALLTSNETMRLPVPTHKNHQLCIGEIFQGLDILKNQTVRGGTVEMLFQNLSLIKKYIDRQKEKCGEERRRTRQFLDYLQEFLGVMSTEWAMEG
Text: as §1

[3] = biological target: T3, rabbit IL-5 with His-tag (rabbit, UniProt G1SL79 20-134); test: ELISA, His-tagged IL-5 captured by anti-His antibody
T3 construct: Expressed transiently in HEK293E and captured from the supernatant by a murine anti-His antibody
T3 sequence: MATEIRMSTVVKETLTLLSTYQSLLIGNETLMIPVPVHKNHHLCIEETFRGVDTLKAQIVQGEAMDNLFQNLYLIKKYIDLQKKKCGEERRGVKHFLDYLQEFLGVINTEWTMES
Text: as §1

[4] = biological target: T4, rat IL-5 with His-tag (rat, UniProt Q08125 20-132); test: ELISA, His-tagged IL-5 captured by anti-His antibody; rat
T4 construct: Expressed transiently in HEK293E and captured from the supernatant by a murine anti-His antibody; not shown: His-tag
T4 sequence (looked up): T2 sequence (looked up) with T14I, A18T, M65I, R79G, R90K, Q93H, G113V
Text: as §1

[5] = biological target: T5, human IL-5-hFc (human, UniProt P05113 20-134); test: competition ELISA: IL-5-hFc coated, biotinylated IL-5RA-ECD-hFc as competitor
T5 construct: not shown: Fc segment of human IgG1
Method: (§2) After incubation for a period of time, the plate was washed and Streptavidin-HRP was added finally for color development detection.

[6] = biological target: T6, human IL-5 protein (purchased from Beijing Yiqiao Shenzhou) (human, UniProt P05113 20-134); test: SPR Biacore T200, antibody captured on Protein A/G, IL-5 as analyte
T6 construct: Bought protein
Text: The specific experimental method was as follows: A CM5 sensor chip (GE healthcare) was activated with a Amine Coupling Kit (GE healthcare) and the Protein A/G fusion protein (Thermo Pierce) was immobilized on the chip with an lable amount of 2000 RU. FC3 (Flow cell 3) was a reference channel, and FC4 (Flow cell 4) was a sample channel.

[7] = biological target: T6, human IL-5 protein (purchased from …); test: cell-based or functional assay
[8] = biological target: T7, IL-5 mutant 104L to Alanine, with His-tag (human, UniProt P05113 20-134); test: capture ELISA: His-tagged IL-5 from HEK293E supernatant captured with murine anti-His antibody, detected with Goat-anti-Human-Fc-Specific-HRP; mean of four wells
T7 construct: Expressed transiently in HEK293E; used from the supernatant, captured by a murine anti-His antibody; not shown: His-tag

[9] = biological target: T8, IL-5 mutant 86C to Alanine, with His-tag (human, UniProt P05113 20-134); test: as above
T8 construct: Expressed transiently in HEK293E; used from the supernatant, captured by a murine anti-His antibody; not shown: His-tag

[10] = biological target: T9, IL-5 mutant 90R to Alanine, with His-tag (human, UniProt P05113 20-134); test: as above
T9 construct: Expressed transiently in HEK293E; used from the supernatant, captured by a murine anti-His antibody; not shown: His-tag

[11] = biological target: T10, IL-5 mutant 91R to Alanine, with His-tag (human, UniProt P05113 20-134); test: as above
T10 construct: Expressed transiently in HEK293E; used from the supernatant, captured by a murine anti-His antibody; not shown: His-tag

[12] = biological target: T11, IL-5 mutant 96F to Alanine, with His-tag (human, UniProt P05113 20-134); test: as above
T11 construct: Expressed transiently in HEK293E; used from the supernatant, captured by a murine anti-His antibody; not shown: His-tag

[13] = biological target: T12, human IL-5-His-tag antigen (human, UniProt P05113 20-134); test: ELISA, His-tagged IL-5 captured by anti-His antibody; human
T12 construct: Made in HEK293

[14] = biological target: T5, human IL-5-hFc; test: blocking ELISA: plate coated with IL-5-hFc, antibody dilutions mixed with biotinylated IL-5RA-ECD-hFc (the blocked ligand), Streptavidin-HRP, OD450
Method: as §2

EC50 [1]: 0.0558 µg/mL
EC50 [2]: 0.0521 µg/mL
binding result [3]: no binding
EC50 [4]: 2.13 µg/mL
B1: humanized antibody No. 4-6 (4-6-Humanized) (antibody, human IgG1, kappa, V domains shown)
VH: QVQLVQSGAEVKKPGASVKVSCKASGYTFTNHHINWVRQAPGQGLEWIGYINPYNDYSRYNQKFKGRATLTVDKSTSTAYMELSSLRSEDTAVYYCARDYGNFWYFDVWGQGTLVTVSS
VL: DIQMTQSPSSLSASVGDRVTITCKASQDINSYLSWIQQKPGKAPKTLIHRADRLIDGVPSRFSGSGSGQDFTLTISSLQPEDFATYYCLQYDDFPYTFGQGTKVEIKR
notes: Human IgG1; Made in HEK293; also called 4-6-Humanized (293); 4-6-Humanized (CHO)

IC50 [5]: 0.98 µg/mL
Kd [6]: 0.013 nM
koff [6]: 0.000196 s⁻¹
kon [6]: 1.51e+07 M⁻¹ s⁻¹
IC50 for inhibiting IL-5-induced TF-1 cell proliferation (4-6-Chimeric) [7]: 28.9 ng/mL
B2: chimeric antibody No. 4-6 (4-6-Chimeric) (antibody, human IgG1, V domains shown)
VH: QVQLQQSGAELVRPGASVKISCKAFGYTFTNHHINWVQQRPGQGLDWIGYINPYNDYSRYNQKFKGKATLTVDKSSSTAYMELSGLTSEDSAVYYCARDYGNFWYFDVWGAGTTVTVSS
VL: DIKMTQSPSSMYASLGERVTITCKASQDINSYLSWIQQKPGKSPKTLIHRADRLIDGVPSRFSGSGSGQDFSLTISSLEYEDMGIYYCLQYDDFPYTFGGGTKLEIK

EC50 [1]: 0.0531 µg/mL
Kd [6]: 0.0136 nM
koff [6]: 0.000156 s⁻¹
kon [6]: 1.15e+07 M⁻¹ s⁻¹
EC50 [2]: 0.0618 µg/mL
IC50 for inhibiting IL-5-induced TF-1 cell proliferation (hu39D10) [7]: 47.6 ng/mL
OD450 [8]: 0.11
OD450 [9]: 0.13
OD450 [10]: 0.499
OD450 [11]: 0.171
OD450 [12]: 0.456
EC50 [13]: 0.078 µg/mL
EC50 [4]: 0.132 µg/mL
B3: hu39D10 (antibody, V domains shown)
VH: EVQLVESGGGLVQPGGSLRLSCAVSGLSLTSNSVNWIRQAPGKGLEWVGLIWSNGDTDYNSAIKSRFTISRDTSKSTVYLQMNSLRAEDTAVYYCAREYYGYFDYWGQGTLVTVSS
VL: DIQMTQSPSSLSASVGDRVTITCLASEGISSYLAWYQQKPGKAPKLLIYGANSLQTGVPSRFSGSGSATDYTLTISSLQPEDFATYYCQQSYKFPNTFGQGTKVEVKR

IC50 (read off the curve) [14]: ~4000 ng/mL
B4: control antibody 4-4-Humanized (antibody, human IgG1, V domains shown)
VH: QVQLVQSGAEVKKPGASVKVSCKASGYTFTDYYINWLRQAPGQGLEWIGWIYPGSGNTKYSEKFKDRATLTVDTSTSTVYMELSSLRSEDTAVYVCVRDGYYWYFDVWGQGTLVTVSS
VL: DIVMTQSPDSLAVSLGERATINCKSSQSLLNNYNQKNYLAWYQQKPGQPPKLLVYFTSTRESGVPDRFSGSGSGTDFTLTISSLQAEDVAVYFCQQHYSPPFTFGQGTKVEIK
